According to patent publication US20160355588A1 (published 2016):
Where two headings read alike, the source gives them in different places.

Tests used:
v1653 = test: whole cell binding
v6475 = test: whole cell binding
CD3 on Jurkat T cells [1] = biological target: T1, CD3 on Jurkat T cells (human, UniProt P07766 23-207)
CD3 on Jurkat T cells [2] = biological target: T1, CD3 on Jurkat T cells; remark: listed apart in the source
CD3 on Jurkat T cells [3] = biological target: T1, CD3 on Jurkat T cells; test: whole cell binding
CD3 on Jurkat T cells [4] = biological target: T1, CD3 on Jurkat T cells; test: whole cell binding; remark: listed apart in the source

Row | Binder | Kd (CD3 on Jurkat T cells [3]) [nM] | Kd (CD3 on Jurkat T cells [4]) [nM] | other results
1 | Raji B cells (receptor) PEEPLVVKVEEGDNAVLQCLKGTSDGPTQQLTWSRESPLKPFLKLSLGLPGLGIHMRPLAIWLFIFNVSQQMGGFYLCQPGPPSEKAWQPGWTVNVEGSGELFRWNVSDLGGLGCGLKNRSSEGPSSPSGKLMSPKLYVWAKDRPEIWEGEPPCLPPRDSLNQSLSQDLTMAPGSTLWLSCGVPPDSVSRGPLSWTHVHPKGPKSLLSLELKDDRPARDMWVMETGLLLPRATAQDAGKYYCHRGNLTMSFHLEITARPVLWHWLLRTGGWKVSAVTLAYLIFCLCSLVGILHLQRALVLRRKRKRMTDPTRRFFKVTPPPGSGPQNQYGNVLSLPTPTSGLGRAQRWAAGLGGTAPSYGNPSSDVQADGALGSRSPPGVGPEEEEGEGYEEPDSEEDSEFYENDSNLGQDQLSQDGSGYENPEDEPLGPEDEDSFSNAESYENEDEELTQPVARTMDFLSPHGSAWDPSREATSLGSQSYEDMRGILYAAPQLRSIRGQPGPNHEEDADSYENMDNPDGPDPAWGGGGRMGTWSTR |  |  | Kd (v1653): 1.4 nM; Kd (v6475): 1.5 nM
2 | v6750 (bispecific antibody) heavy: QVQLQQSGAELVRPGSSVKISCKASGYAFSSYWMNWVKQRPGQGLEWIGQIWPGDGDTNYNGKFKGKATLTADESSSTAYMQLSSLASEDSAVYFCARRETTTVGRYYYAMDYWGQGTTVTVSSASTKGPSVFPLAPSSKSTSGGTAALGCLVKDYFPEPVTVSWNSGALTSGVHTFPAVLQSSGLYSLSSVVTVPSSSLGTQTYICNVNHKPSNTKVDKKVEPKSCDKTHTCPPCPAPELLGGPSVFLFPPKPKDTLMISRTPEVTCVVVDVSHEDPEVKFNWYVDGVEVHNAKTKPREEQYNSTYRVVSVLTVLHQDWLNGKEYKCKVSNKALPAPIEKTISKAKGQPREPQVYVYPPSRDELTKNQVSLTCLVKGFYPSDIAVEWESNGQPENNYKTTPPVLDSDGSFALVSKLTVDKSRWQQGNVFSCSVMHEALHNHYTQKSLSLSPG not shown light: not shown |  |  | Kd (CD3 on Jurkat T cells [1]): ~30 nM; Kd (CD3 on Jurkat T cells [2]): ~30 nM
3 | v875 (bispecific antibody) chain 1: DIQLTQSPASLAVSLGQRATISCKASQSVDYDGDSYLNWYQQIPGQPPKLLIYDASNLVSGIPPRFSGSGSGTDFTLNIHPVEKVDAATYHCQQSTEDPWTFGGGTKLEIKGGGGSGGGGSGGGGSQVQLQQSGAELVRPGSSVKISCKASGYAFSSYWMNWVKQRPGQGLEWIGQIWPGDGDTNYNGKFKGKATLTADESSSTAYMQLSSLASEDSAVYFCARRETTTVGRYYYAMDYWGQGTTVTVSSAAEPKSSDKTHTCPPCPAPELLGGPSVFLFPPKPKDTLMISRTPEVTCVVVDVSHEDPEVKFNWYVDGVEVHNAKTKPREEQYNSTYRVVSVLTVLHQDWLNGKEYKCKVSNKALPAPIEKTISKAKGQPREPQVYTYPPSRDELTKNQVSLTCLVKGFYPSDIAVEWESNGQPENNYKTTPPVLDSDGSFALVSKLTVDKSRWQQGNVFSCSVMHEALHNHYTQKSLSLSPGK chain 2: not shown | ~30 | ~30 | 
4 | v1853 (bispecific antibody) heavy: QVQLVQSGGGVVQPGRSLRLSCKASGYTFTRYTMHWVRQAPGKGLEWIGYINPSRGYTNYNQKVKDRFTISRDNSKNTAFLQMDSLRPEDTGVYFCARYYDDHYCLDYWGQGTPVTVSSASTKGPSVFPLAPSSKSTSGGTAALGCLVKDYFPEPVTVSWNSGALTSGVHTFPAVLQSSGLYSLSSVVTVPSSSLGTQTYICNVNHKPSNTKVDKKVEPKSCDKTHTCPPCPAPELLGGPSVFLFPPKPKDTLMISRTPEVTCVVVDVSHEDPEVKFNWYVDGVEVHNAKTKPREEQYNSTYRVVSVLTVLHQDWLNGKEYKCKVSNKALPAPIEKTISKAKGQPREPQVYVYPPSRDELTKNQVSLTCLVKGFYPSDIAVEWESNGQPENNYKTTPPVLDSDGSFALVSKLTVDKSRWQQGNVFSCSVMHEALHNHYTQKSLSLSPGK not shown light: DIQMTQSPSSLSASVGDRVTITCSASSSVSYMNWYQQTPGKAPKRWIYDTSKLASGVPSRFSGSGSGTDYTFTISSLQPEDIATYYCQQWSSNPFTFGQGTKLQITRTVAAPSVFIFPPSDEQLKSGTASVVCLLNNFYPREAKVQWKVDNALQSGNSQESVTEQDSKDSTYSLSSTLTLSKADYEKHKVYACEVTHQGLSSPVTKSFNRGEC | ~5 | ~5 | 
